The target of experiment [1] is T1, murine RANK, endogenous on RAW 264.7 cells (murine) (UniProt O35305).
T1 sequence: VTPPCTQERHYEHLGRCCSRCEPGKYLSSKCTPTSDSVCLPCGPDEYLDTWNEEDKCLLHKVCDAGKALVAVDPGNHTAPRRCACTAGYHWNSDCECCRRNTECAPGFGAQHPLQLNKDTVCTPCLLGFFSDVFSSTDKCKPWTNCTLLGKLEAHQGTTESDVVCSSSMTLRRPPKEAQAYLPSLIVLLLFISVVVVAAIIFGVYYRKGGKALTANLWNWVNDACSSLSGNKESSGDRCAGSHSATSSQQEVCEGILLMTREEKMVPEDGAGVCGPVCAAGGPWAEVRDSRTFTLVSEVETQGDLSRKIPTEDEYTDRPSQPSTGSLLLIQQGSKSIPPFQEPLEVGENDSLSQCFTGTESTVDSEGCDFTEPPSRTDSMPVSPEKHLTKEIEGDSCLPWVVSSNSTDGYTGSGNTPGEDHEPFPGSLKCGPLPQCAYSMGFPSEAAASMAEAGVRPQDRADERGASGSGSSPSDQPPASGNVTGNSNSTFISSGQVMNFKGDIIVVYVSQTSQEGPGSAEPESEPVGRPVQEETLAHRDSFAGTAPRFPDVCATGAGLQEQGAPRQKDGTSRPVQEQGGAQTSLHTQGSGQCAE
In words: cell-based or functional assay.

Experiment [2] concerns the target T2, full-length human RANK (SEQ ID NO:2) (human, UniProt Q9Y6Q6 29-616).
T2 sequence: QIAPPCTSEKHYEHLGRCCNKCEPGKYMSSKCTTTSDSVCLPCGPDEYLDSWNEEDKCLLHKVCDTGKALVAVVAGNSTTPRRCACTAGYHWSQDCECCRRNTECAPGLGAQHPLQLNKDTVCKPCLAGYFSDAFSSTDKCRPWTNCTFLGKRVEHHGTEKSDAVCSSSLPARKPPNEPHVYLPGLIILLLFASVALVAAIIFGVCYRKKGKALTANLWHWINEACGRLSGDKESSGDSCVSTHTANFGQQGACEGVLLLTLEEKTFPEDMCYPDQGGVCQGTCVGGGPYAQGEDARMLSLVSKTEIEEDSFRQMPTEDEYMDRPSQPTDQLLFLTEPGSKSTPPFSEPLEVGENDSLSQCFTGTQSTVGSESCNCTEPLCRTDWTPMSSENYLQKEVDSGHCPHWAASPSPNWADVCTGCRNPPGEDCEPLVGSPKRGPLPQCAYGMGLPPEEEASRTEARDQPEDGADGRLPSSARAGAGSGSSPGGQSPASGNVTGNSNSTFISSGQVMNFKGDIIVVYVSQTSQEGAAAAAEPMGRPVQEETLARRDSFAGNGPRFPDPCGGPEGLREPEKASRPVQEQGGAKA
As to the kind of experiment: cell-based or functional assay.

From patent US20020086312A1 (IMMUNEX, published 2002) come the findings set out here.

Some results are limits rather than exact numbers.

In experiment [1], “leucine zipper form of murine RANK-L (from UniProt O35235 70-316) (ligand)” yielded an induction of the MMP-9/luciferase promoter in transfected RAW 264.7 cells, 1 ug/ml for 18 hours of 10 to 15 fold; a mouse MMP-9 mRNA in RAW 264.7 cells by quantitative RT-PCR, 200 ng/ml of more than 350 fold; a mouse TRAP mRNA in RAW 264.7 cells by quantitative RT-PCR, 200 ng/ml of more than 250 fold.
In experiment [2], “murine RANK-L (mRANK-L, 200 ng/ml in the differentiation medium) (from UniProt O35235 70-316) (ligand)” gave a 32P incorporation into a c-src-specific substrate by extracts of RANK -/- spleen cells expressing wild-type RANK, after differentiation in CSF-1 and mRANK-L of 15 fold; a F-actin ring formation (fluorescent phalloidin staining) in RANK -/- cells expressing wild-type RANK, cultured 5 days with CSF-1 and mRANK-L (% of the cells) of more than 50.

B1: human full-length RANK-L (SEQ ID NO:6) (ligand)
chain: MRRASRDYTKYLRGSEEMGGGPGAPHEGPLHAPPPPAPHQPPAASRSMFVALLGLGLGQVVCSVALFFYFRAQMDPNRISEDGTHCIYRILRLHENADFQDTTLESQDTKLIPDSCRRIKQAFQGAVQKELQHIVGSQHIRAEKAMVDGSWLDLAKRSKLEAQPFAHLTINATDIPSGSHKVSLSSWYHDRGWAKISNMTFSNGKLIVNQDGFYYLYANICFRHHETSGDLATEYLQLMVYVTKTSIKIPSSHTLMKGGSTKYWSGNSEFHFYSINVGGFFKLRSGEEISIEVSNPSLLDPDQDATYFGAFKVRDID
Regarding B1, in experiment [2], the “luciferase reporter expression from the human TRAP promoter, co-transfected 293/EBNA cells” value was approximately 1.5 fold; the “luciferase reporter expression from the mouse TRAP promoter, co-transfected 293/EBNA cells” value was approximately 4 fold; the “luciferase reporter expression from the murine MMP-9 promoter, co-transfected 293/EBNA cells” value is 2.5 fold.
